IC50 data for one molecule are collected here from US20070224189A1 (published 2007).

The target of the assay is extracellular region of human V158 FcγRIIIa fused with glutathione S-Transferase (GST) (human, UniProt P08637 17-208). Kind of assay: AlphaScreen competition.

B1: WT alemtuzumab (antibody)
chain 1: not shown
chain 2: not shown
By IC50 is commonly meant the midpoint of a concentration-inhibition curve. As for B1, the IC50 came out at 4.6 nM.
